Experimental findings from patent publication US20190038774A1 are described below.

In this assay the target is MHCI antigen presented on MNs. The assay is described as follows: cell-based or functional assay.

The substance “killer cell immunoglobulin-like receptor 3DL2 (KIR3DL2) (from UniProt P43630 22-455)” showed an MN death on co-culture with kir3dl2 shRNA treated ALS astrocytes, day 7 of 50%.
